Test results from patent US20150359847A1, “METHOD AND COMPOSITION FOR CONFERRING NEUROPROTECTION” (BLOOD SYSTEMS RESEARCH INSTITUTE, priority 2014, published 2015).

What was measured:
[1] = tested on: mouse model of controlled cortical impact (CCI); assay: Elevated Plus Maze in controlled cortical impact (CCI) TBI mice; assay type: in vivo
Description: The mouse controlled cortical impact (CCI) injury model was used as previously described. In brief, mice were anesthetized with 5% isoflurane and 1:1 O2:N2 mixture. Animals were mounted on a stereotaxic frame and were secured by ear bars and an incisor bar. Anesthesia was maintained with 2.0% isoflurane and 1:1 O2:N2 mixture. A 5-mm-diameter craniotomy was made midway between bregma and lambda on the right side, with the medial edge of the craniotomy 1 mm lateral to midline. Injury was produced using a magnetic impactor mounted at an angle of 110° from the vertical plane. A single impact at a velocity of 4+/−0.2 m/s was used inflict a moderate to severe injury (1.2-1.3 mm impact depth). After injury, the incision was closed. Sham animals underwent identical surgeries except for impact injury. Core body temperature was monitored using a rectal thermometer and maintained at 36.8° C.-37.2° C. with a heating pad throughout the procedure. […] Animal research was performed with approval of the Institutional Animal Care and Use Committee at ISIS Services LLC (San Carlos, Calif., USA). […]
The elevated plus maze was used to assess anxiety behavior in mice. […] The frequency of entries into the open and closed arms was recorded with an overhead camera using tracking software (Ethovision, Noldus Information Technology, Leesbury, Va.).

[2] = tested on: phospho-S6 Ribosomal Protein (S235/236) in hippocampus; assay: Hippocampal phospho-S6RP western blot and tissue staining 3 days post-TBI; assay type: in vivo, mouse
Description: The mouse controlled cortical impact (CCI) injury model was used as previously described. In brief, mice were anesthetized with 5% isoflurane and 1:1 O2:N2 mixture. Animals were mounted on a stereotaxic frame and were secured by ear bars and an incisor bar. Anesthesia was maintained with 2.0% isoflurane and 1:1 O2:N2 mixture. A 5-mm-diameter craniotomy was made midway between bregma and lambda on the right side, with the medial edge of the craniotomy 1 mm lateral to midline. Injury was produced using a magnetic impactor mounted at an angle of 110° from the vertical plane. A single impact at a velocity of 4+/−0.2 m/s was used inflict a moderate to severe injury (1.2-1.3 mm impact depth). After injury, the incision was closed. Sham animals underwent identical surgeries except for impact injury. Core body temperature was monitored using a rectal thermometer and maintained at 36.8° C.-37.2° C. with a heating pad throughout the procedure. For treatments, TIMP3 (60.0 μg/kg) or vehicle control (PBS) administration was performed at 2, 24, and 48 hrs after injury via tail vein injections in a total volume of 125 μl. Animal research was performed with approval of the Institutional Animal Care and Use Committee at ISIS Services LLC (San Carlos, Calif., USA). Mice received humane care according to the criteria outlined by the National Research Council's Institute of Laboratory Animal Resources in the “Guide for the Care and Use of Laboratory Animals”. Neurocognitive testing conducted at UT Houston was in compliance with University of Texas Houston Institutional Animal Care and Use Committee.
Following treatments mice were subjected to a intra-cardiac perfusion-fixation procedure under isoflurane anesthesia. In brief, following a small incision into the right ventricle, a blunt needle was placed 5 mm into the heart and clamped in place. The left atrium was cut and 30 mls of ice cold PBS was perfused through the mouse using a syringe pump at a constant rate of 4 ml/min. After PBS the procedure was repeated with 30 ml of 4% ice-cold paraformaldehyde (PFA) in PBS. Upon completion of the perfusion procedure, brains were dissected out and placed in 20 mls of 4% PFA for a further 24 hrs before transferring to a 30% sucrose solution for an additional 48 hrs. Following sucrose infiltration, brains were frozen in Tissue-Tek O.C.T.™ compound (Cat#4583, Sakura Fineteck USA, Inc. Torrance, Calif.) using an isopentane/dry ice bath. To prepare coronal sections for tissue staining 20 μm thick sections were obtained using a Leica CM1850™ cryostat (Leica Microsystems, Buffalo Grove, Ill.). Sections were immediately placed in a Storage Solution (30% Glycerol, 30% Ethylene Glycol, 40% 0.1M Phosphate Buffer pH 7.2) and stored at −20° C. until required.
The same protocol was adopted for both tissue sections and isolated neuronal cultures. Briefly, sections were permeabilized with antibody staining solution:—2% w/v BSA (Cat# A3059. Sigma, St Louis, Mo.), 0.1% Triton X-100™ (Cat# X100. Sigma, St Louis, Mo.), 2% v/v goats serum (Cat# S-1000, Vector Labs, Burlingame, Calif.) in PBS. Sections were incubated overnight with primary antibodies on a rotating shaker at 4° C. Sections were then washed three times for 3 min with PBS, and then incubated with secondary antibodies for 1 hr. After staining, sections were washed in PBS, briefly air dried, and coverslipped using Prolong™ gold anti-fade reagent with DAPI (Cat# P36931, Life Technologies, Grand Island, N.Y.). Isolated neuronal cultures underwent the same staining protocol with the exception of the last step in which Prolong gold anti-fade reagent with DAPI was added to the wells of the culture plate sufficient to cover the material. Images were obtained using a Leica DMI6000-B™ inverted microscope, Leica DFC36-FX™ digital camera and Leica Application Suite™ (L.A.S.) software, version 3.1. […]

SH-SY5Y cells = assay: Hypoxia and MTT assay; assay type: cell-based, human; settings: 5 hrs hypoxia + 18 hrs recovery; 1 hr pre-treatment with 1 ng/ml TIMP3
Experimental: MTT Cell Viability & Proliferation Assay™ was purchased from ScienCell, (Cat#8028. Carlsbad, Calif.) and performed with modifications. In brief, 2×10^5 SH-SY5Y cells were plated per well of a 12 well plate and differentiated for 2 days. Pre-treatments were conducted 1 hr prior to initiation of hypoxia. Control cells underwent media exchange. For hypoxia, cultures were placed in a hypoxia incubator chamber (Cat#27310. StemCell technologies, Vancouver, BC) and purged of regular air using nitrogen gas for 5 mins at a flow rate of 20 L/min, after which both inlet and outlet values were closed and the chamber was placed inside a regular tissue culture incubator. The chamber was re-gassed after one hour again for 5 mins at a flow rate of 20 L/min. After the hypoxia period, tissue culture plates were removed from the chamber and placed back into a regular tissue culture incubator for 18 hrs. At the time of assay 50 μl of MTT Solution was added to each well and incubated for 1 hr at 37° C. After incubation, add 250 μl of MTT solubilization buffer was added and […] of each test sample was transferred to a well of a 96 well plate. The absorbance was then read using a Polarstar plate reader (BMG Labtech, Cary, N.C.) at a wavelength at 570 nm. Background subtraction was carried out with values from an average of 4 wells of solubilization buffer alone.

B1: TIMP3: Recombinant tissue inhibitor of matrix metalloproteinase-3, a soluble protein released by MSCs, obtained from Amgen Inc. (protein)
chain: CTCSPSHPQDAFCNSDIVIRAKVVGKKLVKEGPFGTLVYTIKQMKMYRGFTKMPHVQYIHTEASESLCGLKLEVNKYQYLLTGRVYDGKMYTGLCNFVERWDQLTLSQRKGLNYRYHLGCNCKIKSCYYLPCFVTSKNECLWTDMLSNFGYPGYQSKHYACIRQKGGYCSWYRGWAPPDKSIINATDP
For B1, the “frequency of entries into the closed arms (Elevated Plus Maze)” value ([1]; TBI+TIMP3 vs TBI alone, day 3) was “comparable frequency”, the “frequency of entries into the open arms (Elevated Plus Maze)” value ([1]; TIMP3 60 μg/kg tail-vein at 1 hr, 24 hrs, 72 hrs post-TBI, EPM on day 3, vs TBI alone) was 11±1.8 and the “ipsilateral hippocampal phospho-S6RP levels versus sham controls” value ([2]; 3 days post-TBI, western blot) was “are not significantly elevated in TBI alone versus sham controls unlike IV TIMP3 treated animals versus Sham controls”. The “phospho-S6 Ribosomal Protein (S235/236) in ipsilateral hippocampal homogenates” value ([2]; TIMP3 60 μg/kg IV x3, day 3, western blot, vs TBI alone) was “significantly elevates”, the “phospho-S6RP pixel density in area CA3” value ([2]; day 3, tissue staining) was “significant elevation” and the “phospho-S6RP/NeuN+ve neurons in the GCL proximal to injury site” value ([2]; day 3, tissue staining) was “an elevation with TIMP3 treatment”. For the same molecule, the “phospho-S6RP (S235/236) in contralateral hippocampal homogenates” value ([2]; day 3, western blot) was “No differences were observed”, the “phosphorylated S6RP staining in the non-neuronal molecular layer (microglia/astrocytes)” value ([2]; ipsilateral hippocampus, day 3) was “Neither sham controls nor TIMP3 treated TBI mice showed this pattern of staining” and the “SH-SY5Y cell viability by MTT after hypoxia” value (SH-SY5Y cells) was “prevents loss of cell viability”.
